Data as given in patent US20210395713A1 (TRUSTEES OF DARTMOUTH COLLEGE, published 2021).
Read-outs that look alike come from different tables or passages of the source.

B1: cluster 4 peptide with Tyr93His/Ile99Gln (peptide)
peptide: DHVKAGQQIGWSGSTGY
notes: synthetic mutated peptide of the lysostaphin catalytic domain; also called 93_99
B2: cluster 4 peptide with Tyr93His/Lys95Glu/Ile99Gln (peptide)
peptide: DHVEAGQQIGWSGSTGY
notes: synthetic mutated peptide of the lysostaphin catalytic domain; also called 939599
B3: cluster 4 peptide with Ile99Gln (peptide)
peptide: DYVKAGQQIGWSGSTGY
notes: synthetic mutated peptide of the lysostaphin catalytic domain; also called I99Q
B4: cluster 4 peptide with Lys95Glu (peptide)
peptide: DYVEAGQIIGWSGSTGY
notes: synthetic mutated peptide of the lysostaphin catalytic domain; also called K95E
B5: cluster 4 peptide with Tyr93His (peptide)
peptide: DHVKAGQIIGWSGSTGY
notes: synthetic mutated peptide of the lysostaphin catalytic domain; also called Y93H
B6: cluster 4 peptide with Tyr93His/Lys95Glu (peptide)
peptide: DHVEAGQIIGWSGSTGY
notes: synthetic mutated peptide of the lysostaphin catalytic domain; also called 93_95
B7: cluster 4 peptide with Lys95Glu/Ile99Gln (peptide)
peptide: DYVEAGQQIGWSGSTGY
notes: synthetic mutated peptide of the lysostaphin catalytic domain; also called 95-99
B8: cluster 3 peptide with Leu83Met (peptide)
peptide: GVHRQWYMHMSKYNVKVGD
notes: synthetic mutated peptide of the lysostaphin catalytic domain; also called L83M

What was measured:
Assay in all cases: MHC II competition binding assay
[1] = target: T1, purified recombinant MHC II protein, allele DRB1*0101 (human)
T1 construct: bought from Benaroya Research Institute; also called MHC-II DR molecule

[2] = target: T2, purified recombinant MHC II protein, allele DRB1*0401 (human)
T2 construct: bought from Benaroya Research Institute; also called DR4; MHC-II DR molecule

[3] = target: T3, purified recombinant MHC II protein, allele DRB1*0701 (human)
T3 construct: bought from Benaroya Research Institute; also called MHC-II DR molecule

[4] = target: T4, purified recombinant MHC II protein, allele DRB1*1501 (human)
T4 construct: bought from Benaroya Research Institute; also called MHC-II DR molecule

[5] = target: T5, purified recombinant MHC II protein, allele DRB1*1101 (human)
T5 construct: bought from Benaroya Research Institute; also called MHC-II DR molecule

[6] = target: T6, purified recombinant MHC II protein, allele DRB1*0301 (human)
T6 construct: bought from Benaroya Research Institute; also called MHC-II DR molecule

[7] = target: T7, purified recombinant MHC II protein, allele DRB1*0801 (human)
T7 construct: bought from Benaroya Research Institute; also called MHC-II DR molecule

[8] = target: T8, purified recombinant MHC II protein, allele DRB1*1301 (human)
T8 construct: bought from Benaroya Research Institute; also called MHC-II DR molecule

[9] = target: T1, purified recombinant MHC II protein, …; remark: listed apart in the source
[10] = target: T6, purified recombinant MHC II protein, …; remark: listed apart in the source
[11] = target: T2, purified recombinant MHC II protein, …; remark: listed apart in the source
[12] = target: T3, purified recombinant MHC II protein, …; remark: listed apart in the source
[13] = target: T7, purified recombinant MHC II protein, …; remark: listed apart in the source
[14] = target: T5, purified recombinant MHC II protein, …; remark: listed apart in the source
[15] = target: T8, purified recombinant MHC II protein, …; remark: listed apart in the source
[16] = target: T4, purified recombinant MHC II protein, …; remark: listed apart in the source
[17] = target: T1, purified recombinant MHC II protein, …; remark: listed apart in the source
[18] = target: T3, purified recombinant MHC II protein, …; remark: listed apart in the source
[19] = target: T7, purified recombinant MHC II protein, …; remark: listed apart in the source
[20] = target: T5, purified recombinant MHC II protein, …; remark: listed apart in the source

Binder | IC50 [1] [µM] | IC50 [2] [µM] | IC50 [3] [µM] | IC50 [4] [µM] | IC50 [5] [µM] | other results
B1 | < 0.01 | < 0.01 | 60.5 | < 0.01 | – | –
B2 | – | – | 179 | – | – | –
B3 | 31.7 | 6.16 | 93.1 | 66.1 | 24.3 | –
B4 | < 0.01 | < 0.01 | 4.81 | < 0.01 | 6.32 | IC50 [6]: 1.9 µM; IC50 [7]: 12.2 µM; IC50 [8]: 25.7 µM
B5 | 103 | – | 182 | < 0.01 | – | –
B6 | 9.98 | 25.5 | 24.9 | 0.06 | 25 | IC50 [6]: 110 µM; IC50 [7]: 30.9 µM; IC50 [8]: 18.9 µM
B7 | < 0.01 | 25.8 | 104 | < 0.01 | 25.4 | –
GVHRQWYMHLSKYNVKVGD [cluster 3 wild-type (C3WT) epitope peptide] | – | – | – | – | – | IC50 [9]: < 0.01 µM; IC50 [10]: 155 µM; IC50 [11]: 38.1 µM; IC50 [12]: 0.41 µM; IC50 [13]: 0.14 µM; IC50 [14]: < 0.01 µM; IC50 [15]: 54.7 µM; IC50 [16]: 9.51 µM
B8 | – | – | – | – | – | fold decrease in binding against C3WT [17]: 2000 fold; fold decrease in binding against C3WT [18]: > 2 fold; fold decrease in binding against C3WT [19]: ~5 fold; fold decrease in binding against C3WT [20]: 10 fold; IC50 [9]: 32.4 µM; IC50 [10]: 115 µM; IC50 [12]: 2.09 µM; IC50 [13]: 0.37 µM; IC50 [14]: 0.11 µM; IC50 [15]: 27.4 µM; IC50 [16]: 4.42 µM
